# In the Human Domainome abundance scans (Beltran et al. 2025):
# ± gives the uncertainty stated by the source.
# B1: PMS1 protein homolog 1, residues 572 to 637; numbered along this chain, P54277 (parent)
# chain: KKPMSASALFVQDHRPQFLIENPKTSLEDATLQIEELWKTLSEEEKLKYEEKATKDLERYNSQMKR
# Variants of: B1
# Assay: abundance fitness (aPCA) (normalised: wild type 0, dead -1); higher = more abundant; growth selection in yeast, the domain comes from the species named
# Conditions: Homo sapiens
row,Variant,abundance fitness
1,KKPMSASALFVQDHRPQFLIENPKTSLEDATLQIEELWKTLSEEEKLKYEEKATNDLERYNSQMKR [K55N],-0.103 ± 0.11
2,KKPMSASALFVQDHRPQFLIENPKTSLEDATLQIEELWKTLSEEEKLKYEEKATTDLERYNSQMKR [K55T],-0.058 ± 0.096
3,KKPMSASALFVQDHRPQFLIENPKTSLEDATLQIEELWKTLSEEEKLKYEEKATMDLERYNSQMKR [K55M],-0.053 ± 0.089
4,KKPMSASALFVQDHRPQFLIENPKTSLEDATLQIEELWKTLSEEEKLKYEEKATWDLERYNSQMKR [K55W],-0.16 ± 0.089
5,KKPMSASALFVQDHRPQFLIENPKTSLEDATLQIEELWKTLSEEEKLKYEEKATSDLERYNSQMKR [K55S],-0.067 ± 0.062
6,KKPMSASALFVQDHRPQFLIENPKTSLEDATLQIEELWKTLSEEEKLKYEEKATLDLERYNSQMKR [K55L],-0.065 ± 0.073
7,KKPMSASALFVQDHRPQFLIENPKTSLEDATLQIEELWKTLSEEEKLKYEEKATDDLERYNSQMKR [K55D],-0.045 ± 0.11
8,KKPMSASALFVQDHRPQFLIENPKTSLEDATLQIEELWKTLSEEEKLKYEEKATADLERYNSQMKR [K55A],0.059 ± 0.098
9,KKPMSASALFVQDHRPQFLIENPKTSLEDATLQIEELWKTLSEEEKLKYEEKATVDLERYNSQMKR [K55V],-0.016 ± 0.084
10,KKPMSASALFVQDHRPQFLIENPKTSLEDATLQIEELWKTLSEEEKLKYEEKATGDLERYNSQMKR [K55G],-0.137 ± 0.065
11,KKPMSASALFVQDHRPQFLIENPKTSLEDATLQIEELWKTLSEEEKLKYEEKATRDLERYNSQMKR [K55R],-0.076 ± 0.055
12,KKPMSASALFVQDHRPQFLIENPKTSLEDATLQIEELWKTLSEEEKLKYEEKATIDLERYNSQMKR [K55I],-0.001 ± 0.094
13,KKPMSASALFVQDHRPQFLIENPKTSLEDATLQIEELWKTLSEEEKLKYEEKATCDLERYNSQMKR [K55C],-0.086 ± 0.099
14,KKPMSASALFVQDHRPQFLIENPKTSLEDATLQIEELWKTLSEEEKLKYEEKATPDLERYNSQMKR [K55P],-0.339 ± 0.11
15,KKPMSASALFVQDHRPQFLIENPKTSLEDATLQIEELWKTLSEEEKLKYEEKATKPLERYNSQMKR [D56P],-0.423 ± 0.087
16,KKPMSASALFVQDHRPQFLIENPKTSLEDATLQIEELWKTLSEEEKLKYEEKATKFLERYNSQMKR [D56F],-0.244 ± 0.19
17,KKPMSASALFVQDHRPQFLIENPKTSLEDATLQIEELWKTLSEEEKLKYEEKATKELERYNSQMKR [D56E],0.104 ± 0.14
18,KKPMSASALFVQDHRPQFLIENPKTSLEDATLQIEELWKTLSEEEKLKYEEKATKLLERYNSQMKR [D56L],-0.142 ± 0.079
19,KKPMSASALFVQDHRPQFLIENPKTSLEDATLQIEELWKTLSEEEKLKYEEKATKQLERYNSQMKR [D56Q],-0.162 ± 0.15
20,KKPMSASALFVQDHRPQFLIENPKTSLEDATLQIEELWKTLSEEEKLKYEEKATKKLERYNSQMKR [D56K],-0.353 ± 0.17
21,KKPMSASALFVQDHRPQFLIENPKTSLEDATLQIEELWKTLSEEEKLKYEEKATKHLERYNSQMKR [D56H],-0.172 ± 0.12

row,Variant,abundance fitness
1,KKPMSASALFVQDHRPQFLIENPKTSLEDATLQIEELWKTLSEEEKLKYEEKATKWLERYNSQMKR [D56W],-0.258 ± 0.24
2,KKPMSASALFVQDHRPQFLIENPKTSLEDATLQIEELWKTLSEEEKLKYEEKATKRLERYNSQMKR [D56R],-0.128 ± 0.083
3,KKPMSASALFVQDHRPQFLIENPKTSLEDATLQIEELWKTLSEEEKLKYEEKATKNLERYNSQMKR [D56N],-0.283 ± 0.11
4,KKPMSASALFVQDHRPQFLIENPKTSLEDATLQIEELWKTLSEEEKLKYEEKATKTLERYNSQMKR [D56T],-0.145 ± 0.11
5,KKPMSASALFVQDHRPQFLIENPKTSLEDATLQIEELWKTLSEEEKLKYEEKATKCLERYNSQMKR [D56C],-0.163 ± 0.083
6,KKPMSASALFVQDHRPQFLIENPKTSLEDATLQIEELWKTLSEEEKLKYEEKATKMLERYNSQMKR [D56M],-0.231 ± 0.17
7,KKPMSASALFVQDHRPQFLIENPKTSLEDATLQIEELWKTLSEEEKLKYEEKATKILERYNSQMKR [D56I],-0.306 ± 0.23
8,KKPMSASALFVQDHRPQFLIENPKTSLEDATLQIEELWKTLSEEEKLKYEEKATKVLERYNSQMKR [D56V],-0.348 ± 0.085
9,KKPMSASALFVQDHRPQFLIENPKTSLEDATLQIEELWKTLSEEEKLKYEEKATKSLERYNSQMKR [D56S],-0.035 ± 0.074
10,KKPMSASALFVQDHRPQFLIENPKTSLEDATLQIEELWKTLSEEEKLKYEEKATKALERYNSQMKR [D56A],-0.049 ± 0.12
11,KKPMSASALFVQDHRPQFLIENPKTSLEDATLQIEELWKTLSEEEKLKYEEKATKGLERYNSQMKR [D56G],-0.144 ± 0.1
12,KKPMSASALFVQDHRPQFLIENPKTSLEDATLQIEELWKTLSEEEKLKYEEKSTKDLERYNSQMKR [A53S],-0.121 ± 0.068
13,KKPMSASALFVQDHRPQFLIENPKTSLEDATLQIEELWKTLSEEEKLKYEEKLTKDLERYNSQMKR [A53L],-0.432 ± 0.053
14,KKPMSASALFVQDHRPQFLIENPKTSLEDATLQIEELWKTLSEEEKLKYEEKWTKDLERYNSQMKR [A53W],-0.79 ± 0.094
15,KKPMSASALFVQDHRPQFLIENPKTSLEDATLQIEELWKTLSEEEKLKYEEKTTKDLERYNSQMKR [A53T],-0.345 ± 0.076
16,KKPMSASALFVQDHRPQFLIENPKTSLEDATLQIEELWKTLSEEEKLKYEEKMTKDLERYNSQMKR [A53M],-0.387 ± 0.083
17,KKPMSASALFVQDHRPQFLIENPKTSLEDATLQIEELWKTLSEEEKLKYEEKDTKDLERYNSQMKR [A53D],-0.498 ± 0.11
18,KKPMSASALFVQDHRPQFLIENPKTSLEDATLQIEELWKTLSEEEKLKYEEKVTKDLERYNSQMKR [A53V],-0.26 ± 0.058
19,KKPMSASALFVQDHRPQFLIENPKTSLEDATLQIEELWKTLSEEEKLKYEEKFTKDLERYNSQMKR [A53F],-0.212 ± 0.12
20,KKPMSASALFVQDHRPQFLIENPKTSLEDATLQIEELWKTLSEEEKLKYEEKITKDLERYNSQMKR [A53I],-0.834 ± 0.14
